Consider 1 protein from PMC6208404, “Calcium sensing by the STIM1 ER-luminal domain” (Nature Communications, 2018).

The data set deals with the molecule itself. In words: FRET or BRET; in vitro; purified protein randomly labelled with fluorescein (donor) and Alexa Fluor 594 (acceptor) at an engineered N-terminal cysteine; 250 nM protein, 22 °C, excitation 420 nm; Chelex-treated Ca2+-free buffer, FRET reduced as Ca2+ was added. For orientation: BRET reads energy transfer from a luciferase to a nearby fluorophore.

B1: single-cysteine EFSAM-GrpE (CGG-EFSAM(58-209)-linker-GrpE(1-171)), labelled with fluorescein and/or Alexa Fluor 594 (other, mouse | Thermus thermophilus HB8)
chain: CGGSEDEKLSFEAVRNIHKLMDDDANGDVDVEESDEFLREDLNYHDPTVKHSTFHGEDKLISVEDLWKAWKSSEVYNWTVDEVIQWLITYVELPQYEETFRKLQLTGHAMPRLAVTNTTMTGTVLKMTDRSHRQKLQLKALDTVLFGPPLLTRHNLELSRANSSTLAAVTSGSELMEERNHENTLEKDLEAVGQEAQALEERLKAAEEELKGLKDKYLRLLADFDNYRKRMEEELKAREREGVLKALRALLPVLDDLDRALEFAEASPESIRQGVRAIRDGFFRILAGLGVEEVPGEGEAFDPRYHEAVGLLPGEPGKVAKVFQRGFRMGEALVRPARVAVGEEKR
modifications: fluorescein-5-maleimide or Alexa Fluor 594 C5 maleimide on the engineered N-terminal cysteine (random labelling, ~0.8-0.9:1 fluorophore to protein)
notes: engineered stretch with the single cysteine, immediately N-terminal to EFSAM residue 58; STIM1 ER-luminal EFSAM domain, mouse, residues 58-209; linker between EFSAM and GrpE; GrpE, Thermus thermophilus HB8, residues 1-171 (nucleotides 2222-2734 of GenBank AB012390.1); also called double-labelled EFSAM-GrpE; donor/acceptor-labelled EFSAM-GrpE; source: E. coli BL21, purified (Ni-NTA, Superdex 200 …)
As to B1, the binding result is “binds”.
